Measurements published in the supplement of paper PMC9170038.

Columns and labels:
MS2 coat protein [1] = experiment: apparent KD of MS2 coat protein, switch ON state; designed switch direction (-1 OFF switch, 1 ON switch): -1; higher = weaker reporter binding; conditions: FMN input: 0 or 200 uM; Eterna round: R93 (includes R88 designs)
Outline: (§1)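 In 100 mM Tris-HCl pH 7.5 with 80 mM KCl and 4 mM MgCl2, and without or with constant ligand, SNAP-549-labelled MS2 coat protein was titrated in twofold steps from 0.7 or 1.5 nM to 3 µM. Per-step times went from 0.8–1.5 h down to 10–20 min. The RNA switches were transcribed on-chip from Illumina sequencing clusters, and apparent KD is the per-design median of normalised cluster binding-curve fits.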

MS2 coat protein [2] = experiment: apparent KD of MS2 coat protein, switch OFF state (with FMN for OFF switches, without FMN for ON switches); designed switch direction (-1 OFF switch, 1 ON switch): -1; higher = weaker reporter binding; conditions: FMN input: 0 or 200 uM; Eterna round: R93 (includes R88 designs)
Outline: as §1

Sequence	apparent KD of MS2 coat protein (MS2 coat protein [1]) [nM]	apparent KD of MS2 coat protein (MS2 coat protein [2]) [nM]
GAAAAACAUGAGGAUCACCCAUGUAAGGAUAUGCUAAAAAACGCAAAAAAAGCGAAUAGCAGAAGGUACAAAAA [Mat - Exclusion 1 - Eli mod - D83]	20.6	33.4
AAAACGUGAGGAUAUGCACCAAAAAAGGAAAAACGGGUACGACAUGAGGAUCACCCAUGUAGAAGGCACGAAAA [Frodo Flailing 9 - Jieux - Exclusion 2]	40.8	39
AUCUUGUCAGGAUAUGACUACAUAAAAAAUAAAAAAUGUAGUCAGAAGGGACAUGAGGAUCACCCAUGUACCAA [Mat - Exclusion 4 - Eli mod - D96]	20.4	22.3
AGUUGGCGAGGAUAUACAUGAGGAUCACCCAUGUGAAAGAAAAAAGUGAAAAAGCAAAGUAGAAGGCGCUGACA [73%, Moding Norbert Elias, 5]	34.9	192
AAAAAACAUGAGGAUCACCCAUGUGAGGAUAUGCGAAAAAAAAAAUAAAAAAAAAAAAGUAGAAGGUACAAAAA [LROPPY Exclusion 1 - v08_deltaG=5.44]	27.9	26.9
AAAUUGUCAGGAUAUGUACGAACAACAAAACAAAUAACGGUACAGAAGGGACAUGAGGAUCACCCAUGUAUAAA [May 72]	65.8	73.2
AAAAUGUCAGGAUAUGUAGCAUGAUACGAAAGUAUCAUGCUACAGAAGGGACAUGAGGAUCACCCAUGUGAUCA [Ex4: 939]	59.7	45
AAAAAUGGAGGAUAUACAUGAGGAUCACCCAUGUGUAACUAUACAAAACACAAAAAAAGUAGAAGGCCAAAAAA [Gilly Gone Silly 7 - Jieux - Exclusion 3]	20.1	19.3
AAAAGUACAGGAUAUACAUGAGGAUCACCCAUGUGAAAAUUAAGUGGCGUACAACAAAGUAGAAGGGUACUGGA [Ruby 52]	20.7	44.6
GAAAACAGAGGAUAUACGGGAUUGACACGAAAAGUGCAAAAACAUGAGGAUCACCCAUGUAGAAGGCUGAAGAA [Meechl MS2... 60% 2]	31.5	42.5
CUCAUGUUAGGAUAUAUAUGAAAUGAAGUGAAAGAAAAGAAAUAGAAGGAACAUGAGGAUCACCCAUGUUAGAA [EteRNA is fun!]	51	32.6
AAAGAUGCAGGAUAUACAUGAGGAUCACCCAUGUUAGACCAGAAAUGGGAAAAAGAAAGUAGAAGGGCAUAAAA [Ex 3 May 33]	18.2	119
AGCUAGUCAGGAUAUACGAGAAAGAAAGAAGACGUGAAGGGACAUGAGGAUCACCCAUGUAGAAGGGACUAGCA [Diamond 26]	30.3	67.1
GGAUGUGAAGGAUAUACAUGAGGAUCACCCAUGUGAGAGAAAAAAGUGAGAAAGAAAAGUAGAAGGUCGUGUCG [salish99-ex3-86]	34.9	36.9
ACAAAGUGAGGAUAUGCUAUCGUACAAUAUAGUUAUCGUAUGCAGAAGGCACAUGAGGAUCACCCAUGUAAGAA [Ex 4 Tesla 9]	40.7	36.7
CUCAUGUCAGGAUAUCAGUAGUAAAAAAAUAAAAUUACUACUGAGAAGGGACAUGAGGAUCACCCAUGUCAAAA [EX4 363: Super Stable 63]	20.7	19.8
AAAAAACAUGAGGAUCACCCAUGUAAGGAUAUGCUAAAAAACACGGAAAAACGUGAUAGCAGAAGGUACAAAAG [Mat - Exclusion 1 - Eli mod - D87]	25.5	31.2
AAAAGUUGAGGAUAUACAAAAUGAUUGCGAAAUCAAUUAAAACAUGAGGAUCACCCAUGUAGAAGGCGAUAAAA [Banishment 4 - Jieux - Exclusion 2]	27	21.6
AAAAAACAUGAGGAUCACCCAUGUAAGGAUAUGUAAAAUAAAAGAAAAAUAAAGAAAAGCAGAAGGUAUAUGUA [JL wbt mod 17]	29	24.7
AAAAUACAUGAGGAUCACCCAUGUGAGGAUAUGCUAUGGAAAUAAAAAAUAAAACAUAGCAGAAGGUACAAAAA [Mat - Exclusion 1 - Eli mod - D42]	20.9	33.7
AACGGGCUAGGAUAUACACAAGCCUCAGAACAAAUAAACAAACAUGAGGAUCACCCAUGUAGAAGGAGCGCAAA [Lesocerean]	30.6	42.9
AGCACGUCAGGAUAUACGAAAAAAAAGGGAAACAACAAGGGACAUGAGGAUCACCCAUGUAGAAGGGACUAGCA [Diamond 97]	49.4	44.3

Sequence	apparent KD of MS2 coat protein (MS2 coat protein [1]) [nM]	apparent KD of MS2 coat protein (MS2 coat protein [2]) [nM]
AAGAACCGAGGAUAUACAUGAGGAUCACCCAUGUAAAAGAAAGAAAAGGGAAAGAAAAGUAGAAGGCGGAAGAA [Aakheperenre Thutmose II]	42.8	55.5
AAGAAGUGAGGAUAUACAAAAUAAAAGAAAAGAAAGAAAGAACAUGAGGAUCACCCAUGUAGAAGGCGCAAGAA [Merhotepre Ini]	24.5	24.9
CACGUACAUGAGGAUCACCCAUGUUAGGAUAUGCCGGGUAAGAGAAAACAAAAAAUCAGCAGAAGGAACGAAAC [Bilbo Confounded 18 - Jieux - Exclusion 1]	28.2	28.5
AACUGACAUGAGGAUCACCCAUGUCAGGAUAUGCUUCAUAAAAAAAAAAAAAAAUGAUGCAGAAGGGACAUGGG [Design 32 :P Sub-opt 8]	41.6	110
CAGUACUGAGGAUAUACAUGAGGAUCACCCAUGUAUCAAAGCUAGGAAACUAGCACAUGUAGAAGGCAGUACUG [Ex3: 823]	25.7	132
AAAACGGUAGGAUAUACAUGAGGAUCACCCAUGUUAAAUUUAAAAAUAAAAUUAAAAUGUAGAAGGACCAAAAA [Mai Tai1]	31.5	35
AUAAAACAUGAGGAUCACCCAUGUGAGGAUAUGCGAAAAUAAAUAAAAUAAAAUAAAAGCAGAAGGUACAAAUA [LROPPY Exclusion 1 - v04_deltaG=2.5 breakup some As]	29.3	40.2
GCAAAGUGAGGAUAUACGCGAACAAAAAUAAAAAAGAAAGCGUAGAAGGCACAUGAGGAUCACCCAUGUCCAGC [Mat - Exaclusion 4 - Eli mod - D77]	23.7	30.3
AAAAAGUGAGGAUAUCCAGAUAAAAAAACGAAAAAAAAUCUGGAGAAGGCACAUGAGGAUCACCCAUGUAUGAC [Ex 4 May 6]	32.7	38.2
GAAGAACAUGAGGAUCACCCAUGUCAGGAUAUACAGAAGGGAAUAAUAUAACCUGAAAGUAGAAGGGACAAGAA [Ex 1 May 43]	33.9	46.2
GAAGAACAUGAGGAUCACCCAUGUCAGGAUAUACAGAAGGGAAUAAUAAAAUCUGGAAGUAGAAGGGACAAGAA [Ex 1 May 46]	32.5	49.3
GCUUGGGUAGGAUAUACAUGAGGAUCACCCAUGUGAGAGAAAAAAGUGAGAAAGAAAAGUAGAAGGACCUGAGG [salish99-ex3-107]	123	244
UAUACGUGAGGAUAUGCGAAUACCACGUUAGACAUAUAGACGCAGAAGGCACAUGAGGAUCACCCAUGUGAACC [JR_Exc004_Sub315]	21.4	16.4
GGAUGUGUAGGAUAUACAUGAGGAUCACCCAUGUGAGAGAAAAAAGUGAGAAAGAAAAGUAGAAGGACGUGUCG [salish99-ex3-89]	41	38
AUCAUGUAAGGAUAUUUAAGAAAAGAAAAGAAAGAAAAGAAAAAGAAGGUACAUGAGGAUCACCCAUGUAAGAA [EteRNA is fun!]	27.1	18.9
AAAUAGCAAGGAUAUACAUGAGGAUCACCCAUGUGAAAAAGAUAUGGAAUAGAAUAGAGUAGAAGGUGCAAAUA [Ex 3 Tesla 8]	40.4	54.1
CGUUGGCGAGGAUAUACAUGAGGAUCACCCAUGUGAGAGAAAAAAGUGAGAAAGAAAAGUAGAAGGCGCUGACC [salish99-ex3-13]	45.1	162
AAGAAGCGAGGAUAUACAUGAAAGAAAGAAAAGAAAAGAAAACAUGAGGAUCACCCAUGUAGAAGGCGCAAGAA [EteRNA is fun!]	21.4	28.2
AAAAAGAGAGGAUAUACAUGAGGAUCACCCAUGUGACACAAAAAAAAAAAAAAAAAAUGUAGAAGGCUCAAAAA [65%, Moding Exclusion3-cac2, 18]	35.5	97.2
AGAAAUGUAGGAUAUACAUGAGGAUCACCCAUGUGGGAGGAGGAGCAAACAAGACGAGGUAGAAGGACAACGAC [JR_Exc003-Sub903]	73.5	79.2
AAAAAACAUGAGGAUCACCCAUGUUAGGAUAUGCUAUGGAAAAAUAAAAUAAAACAUAGCAGAAGGGACAAAAA [Mat - Exclusion 1 - Eli mod - D28]	15	38.3
AAGAACGAAGGAUAUACAAAAUAAAAGAAAAGAAAGAAAGAACAUGAGGAUCACCCAUGUAGAAGGUCGAAGAA [Awybre Hor I]	10.5	25.8
